Laboratory results as given in patent US20250171562A1.

B1: NIgG4B2A1(RS) (Fc fusion)
chain 1: QVQLVESGGGLVQAGGSLRLSCAVFGSTFSNNVADWYRQAPGKQRELVARISASGATREYGDSVKGRFTISRDDAKNTMYLQMNNLKPEDTAVYRCHKIEWEDLSRKDYWGQGTQVTVSRSGPPCPPCPAPEFLGGPSVFLFPPKPKDTLMISRTPEVTCVVVDVSQEDPEVQFNWYVDGVEVHNAKTKPREEQFNSTYRVVSVLTVLHQDWLNGKEYKCKVSNKGLPSSIEKTISKAKGQPREPQVYTLPPCQEEMTKNQVSLWCLVKGFYPSDIAVEWESNGQPENNYKTTPPVLDSDGSFFLYSRLTVDKSRWQEGNVFSCSVMHEALHNHYTQKSLSLSLGK
chain 2: EVQLLESGGGLVQPGGSLRLSCAASGFTFGNYDMAWVRQAPGKRPEWVSSIDTGGDITHYADSVKGRFTISRDNAKNTLYLQMNSLRPEDTAVYWCATDEEYALGPNEFDYYGQGTLVTVSSRSGPPCPPCPAPEFLGGPSVFLFPPKPKDTLMISRTPEVTCVVVDVSQEDPEVQFNWYVDGVEVHNAKTKPREEQFNSTYRVVSVLTVLHQDWLNGKEYKCKVSNKGLPSSIEKTISKAKGQPREPQVCTLPPSQEEMTKNQVSLSCAVKGFYPSDIAVEWESNGQPENNYKTTPPVLDSDGSFFLVSRLTVDKSRWQEGNVFSCSVMHEALHNHYTQKSLSLSLGK
B2: CIgG4B1A2(RS) (Fc fusion)
chain 1: GPPCPPCPAPEFLGGPSVFLFPPKPKDTLMISRTPEVTCVVVDVSQEDPEVQFNWYVDGVEVHNAKTKPREEQFNSTYRVVSVLTVLHQDWLNGKEYKCKVSNKGLPSSIEKTISKAKGQPREPQVYTLPPCQEEMTKNQVSLWCLVKGFYPSDIAVEWESNGQPENNYKTTPPVLDSDGSFFLYSRLTVDKSRWQEGNVFSCSVMHEALHNHYTQKSLSLSLGKRSQVQLQESGGGLVQTGGSLRLSCAVHGRTFSNTGMGWFRQAPGNERQFVAIISPSGTSTYYADSVKGRFTISRDPAKNTVYLQMNSLKMDDTAVYYCAASYGSNWSTLRHQRRNEYDAWGQGTQVAVS
chain 2: GPPCPPCPAPEFLGGPSVFLFPPKPKDTLMISRTPEVTCVVVDVSQEDPEVQFNWYVDGVEVHNAKTKPREEQFNSTYRVVSVLTVLHQDWLNGKEYKCKVSNKGLPSSIEKTISKAKGQPREPQVCTLPPSQEEMTKNQVSLSCAVKGFYPSDIAVEWESNGQPENNYKTTPPVLDSDGSFFLVSRLTVDKSRWQEGNVFSCSVMHEALHNHYTQKSLSLSLGKRSEVQLLESGGGLVQPGGSLRLSCAASGFRFGNYDMAWVRQAPGKRYEWVSSIDTGGDITHYADSVKGRFTISRDNAKNTLYLQMNSLRPEDTAEYWCATDEEYALGPNEFDYYGQGTLVTVS
B3: NIgG4B1A2(G4S)2 (Fc fusion)
chain 1: QVQLQESGGGLVQTGGSLRLSCAVHGRTFSNTGMGWFRQAPGNERQFVAIISPSGTSTYYADSVKGRFTISRDPAKNTVYLQMNSLKMDDTAVYYCAASYGSNWSTLRHQRRNEYDAWGQGTQVAVSGGGGSGGGGSGPPCPPCPAPEFLGGPSVFLFPPKPKDTLMISRTPEVTCVVVDVSQEDPEVQFNWYVDGVEVHNAKTKPREEQFNSTYRVVSVLTVLHQDWLNGKEYKCKVSNKGLPSSIEKTISKAKGQPREPQVYTLPPCQEEMTKNQVSLWCLVKGFYPSDIAVEWESNGQPENNYKTTPPVLDSDGSFFLYSRLTVDKSRWQEGNVFSCSVMHEALHNHYTQKSLSLSLGK
chain 2: EVQLLESGGGLVQPGGSLRLSCAASGFRFGNYDMAWVRQAPGKRYEWVSSIDTGGDITHYADSVKGRFTISRDNAKNTLYLQMNSLRPEDTAEYWCATDEEYALGPNEFDYYGQGTLVTVSGGGGSGGGGSGPPCPPCPAPEFLGGPSVFLFPPKPKDTLMISRTPEVTCVVVDVSQEDPEVQFNWYVDGVEVHNAKTKPREEQFNSTYRVVSVLTVLHQDWLNGKEYKCKVSNKGLPSSIEKTISKAKGQPREPQVCTLPPSQEEMTKNQVSLSCAVKGFYPSDIAVEWESNGQPENNYKTTPPVLDSDGSFFLVSRLTVDKSRWQEGNVFSCSVMHEALHNHYTQKSLSLSLGK
B4: CIgG4B1A2(G4S)2 (Fc fusion)
chain 1: GPPCPPCPAPEFLGGPSVFLFPPKPKDTLMISRTPEVTCVVVDVSQEDPEVQFNWYVDGVEVHNAKTKPREEQFNSTYRVVSVLTVLHQDWLNGKEYKCKVSNKGLPSSIEKTISKAKGQPREPQVYTLPPCQEEMTKNQVSLWCLVKGFYPSDIAVEWESNGQPENNYKTTPPVLDSDGSFFLYSRLTVDKSRWQEGNVFSCSVMHEALHNHYTQKSLSLSLGKGGGGSGGGGSQVQLQESGGGLVQTGGSLRLSCAVHGRTFSNTGMGWFRQAPGNERQFVAIISPSGTSTYYADSVKGRFTISRDPAKNTVYLQMNSLKMDDTAVYYCAASYGSNWSTLRHQRRNEYDAWGQGTQVAVS
chain 2: GPPCPPCPAPEFLGGPSVFLFPPKPKDTLMISRTPEVTCVVVDVSQEDPEVQFNWYVDGVEVHNAKTKPREEQFNSTYRVVSVLTVLHQDWLNGKEYKCKVSNKGLPSSIEKTISKAKGQPREPQVCTLPPSQEEMTKNQVSLSCAVKGFYPSDIAVEWESNGQPENNYKTTPPVLDSDGSFFLVSRLTVDKSRWQEGNVFSCSVMHEALHNHYTQKSLSLSLGKGGGGSGGGGSEVQLLESGGGLVQPGGSLRLSCAASGFRFGNYDMAWVRQAPGKRYEWVSSIDTGGDITHYADSVKGRFTISRDNAKNTLYLQMNSLRPEDTAEYWCATDEEYALGPNEFDYYGQGTLVTVS
B5: NIgG4B2A1(G4S)1 (Fc fusion)
chain 1: QVQLVESGGGLVQAGGSLRLSCAVFGSTFSNNVADWYRQAPGKQRELVARISASGATREYGDSVKGRFTISRDDAKNTMYLQMNNLKPEDTAVYRCHKIEWEDLSRKDYWGQGTQVTVSGGGGSGPPCPPCPAPEFLGGPSVFLFPPKPKDTLMISRTPEVTCVVVDVSQEDPEVQFNWYVDGVEVHNAKTKPREEQFNSTYRVVSVLTVLHQDWLNGKEYKCKVSNKGLPSSIEKTISKAKGQPREPQVYTLPPCQEEMTKNQVSLWCLVKGFYPSDIAVEWESNGQPENNYKTTPPVLDSDGSFFLYSRLTVDKSRWQEGNVFSCSVMHEALHNHYTQKSLSLSLGK
chain 2: EVQLLESGGGLVQPGGSLRLSCAASGFTFGNYDMAWVRQAPGKRPEWVSSIDTGGDITHYADSVKGRFTISRDNAKNTLYLQMNSLRPEDTAVYWCATDEEYALGPNEFDYYGQGTLVTVSSGGGGSGPPCPPCPAPEFLGGPSVFLFPPKPKDTLMISRTPEVTCVVVDVSQEDPEVQFNWYVDGVEVHNAKTKPREEQFNSTYRVVSVLTVLHQDWLNGKEYKCKVSNKGLPSSIEKTISKAKGQPREPQVCTLPPSQEEMTKNQVSLSCAVKGFYPSDIAVEWESNGQPENNYKTTPPVLDSDGSFFLVSRLTVDKSRWQEGNVFSCSVMHEALHNHYTQKSLSLSLGK
B6: CIgG4B1A2(G4S)1 (Fc fusion)
chain 1: GPPCPPCPAPEFLGGPSVFLFPPKPKDTLMISRTPEVTCVVVDVSQEDPEVQFNWYVDGVEVHNAKTKPREEQFNSTYRVVSVLTVLHQDWLNGKEYKCKVSNKGLPSSIEKTISKAKGQPREPQVYTLPPCQEEMTKNQVSLWCLVKGFYPSDIAVEWESNGQPENNYKTTPPVLDSDGSFFLYSRLTVDKSRWQEGNVFSCSVMHEALHNHYTQKSLSLSLGKGGGGSQVQLQESGGGLVQTGGSLRLSCAVHGRTFSNTGMGWFRQAPGNERQFVAIISPSGTSTYYADSVKGRFTISRDPAKNTVYLQMNSLKMDDTAVYYCAASYGSNWSTLRHQRRNEYDAWGQGTQVAVS
chain 2: GPPCPPCPAPEFLGGPSVFLFPPKPKDTLMISRTPEVTCVVVDVSQEDPEVQFNWYVDGVEVHNAKTKPREEQFNSTYRVVSVLTVLHQDWLNGKEYKCKVSNKGLPSSIEKTISKAKGQPREPQVCTLPPSQEEMTKNQVSLSCAVKGFYPSDIAVEWESNGQPENNYKTTPPVLDSDGSFFLVSRLTVDKSRWQEGNVFSCSVMHEALHNHYTQKSLSLSLGKGGGGSEVQLLESGGGLVQPGGSLRLSCAASGFRFGNYDMAWVRQAPGKRYEWVSSIDTGGDITHYADSVKGRFTISRDNAKNTLYLQMNSLRPEDTAEYWCATDEEYALGPNEFDYYGQGTLVTVS
B7: NIgG4B1A2(G4S)3 (Fc fusion)
chain 1: QVQLQESGGGLVQTGGSLRLSCAVHGRTFSNTGMGWFRQAPGNERQFVAIISPSGTSTYYADSVKGRFTISRDPAKNTVYLQMNSLKMDDTAVYYCAASYGSNWSTLRHQRRNEYDAWGQGTQVAVSGGGGSGGGGSGGGGSGPPCPPCPAPEFLGGPSVFLFPPKPKDTLMISRTPEVTCVVVDVSQEDPEVQFNWYVDGVEVHNAKTKPREEQFNSTYRVVSVLTVLHQDWLNGKEYKCKVSNKGLPSSIEKTISKAKGQPREPQVYTLPPCQEEMTKNQVSLWCLVKGFYPSDIAVEWESNGQPENNYKTTPPVLDSDGSFFLYSRLTVDKSRWQEGNVFSCSVMHEALHNHYTQKSLSLSLGK
chain 2: EVQLLESGGGLVQPGGSLRLSCAASGFRFGNYDMAWVRQAPGKRYEWVSSIDTGGDITHYADSVKGRFTISRDNAKNTLYLQMNSLRPEDTAEYWCATDEEYALGPNEFDYYGQGTLVTVSGGGGSGGGGSGGGGSGPPCPPCPAPEFLGGPSVFLFPPKPKDTLMISRTPEVTCVVVDVSQEDPEVQFNWYVDGVEVHNAKTKPREEQFNSTYRVVSVLTVLHQDWLNGKEYKCKVSNKGLPSSIEKTISKAKGQPREPQVCTLPPSQEEMTKNQVSLSCAVKGFYPSDIAVEWESNGQPENNYKTTPPVLDSDGSFFLVSRLTVDKSRWQEGNVFSCSVMHEALHNHYTQKSLSLSLGK
B8: CIgG4B1A2(G4S)3 (Fc fusion)
chain 1: GPPCPPCPAPEFLGGPSVFLFPPKPKDTLMISRTPEVTCVVVDVSQEDPEVQFNWYVDGVEVHNAKTKPREEQFNSTYRVVSVLTVLHQDWLNGKEYKCKVSNKGLPSSIEKTISKAKGQPREPQVYTLPPCQEEMTKNQVSLWCLVKGFYPSDIAVEWESNGQPENNYKTTPPVLDSDGSFFLYSRLTVDKSRWQEGNVFSCSVMHEALHNHYTQKSLSLSLGKGGGGSGGGGSGGGGSQVQLQESGGGLVQTGGSLRLSCAVHGRTFSNTGMGWFRQAPGNERQFVAIISPSGTSTYYADSVKGRFTISRDPAKNTVYLQMNSLKMDDTAVYYCAASYGSNWSTLRHQRRNEYDAWGQGTQVAVS
chain 2: GPPCPPCPAPEFLGGPSVFLFPPKPKDTLMISRTPEVTCVVVDVSQEDPEVQFNWYVDGVEVHNAKTKPREEQFNSTYRVVSVLTVLHQDWLNGKEYKCKVSNKGLPSSIEKTISKAKGQPREPQVCTLPPSQEEMTKNQVSLSCAVKGFYPSDIAVEWESNGQPENNYKTTPPVLDSDGSFFLVSRLTVDKSRWQEGNVFSCSVMHEALHNHYTQKSLSLSLGKGGGGSGGGGSGGGGSEVQLLESGGGLVQPGGSLRLSCAASGFRFGNYDMAWVRQAPGKRYEWVSSIDTGGDITHYADSVKGRFTISRDNAKNTLYLQMNSLRPEDTAEYWCATDEEYALGPNEFDYYGQGTLVTVS

target: mixture of three Der p 2 specific recombinant human IgE clones H10, H12, P4E (human) (UniProt P01854); assay: RBL-SX38 IgE displacement, FACS
Sequence (P01854 other isoform, or with tags, fused parts or gaps): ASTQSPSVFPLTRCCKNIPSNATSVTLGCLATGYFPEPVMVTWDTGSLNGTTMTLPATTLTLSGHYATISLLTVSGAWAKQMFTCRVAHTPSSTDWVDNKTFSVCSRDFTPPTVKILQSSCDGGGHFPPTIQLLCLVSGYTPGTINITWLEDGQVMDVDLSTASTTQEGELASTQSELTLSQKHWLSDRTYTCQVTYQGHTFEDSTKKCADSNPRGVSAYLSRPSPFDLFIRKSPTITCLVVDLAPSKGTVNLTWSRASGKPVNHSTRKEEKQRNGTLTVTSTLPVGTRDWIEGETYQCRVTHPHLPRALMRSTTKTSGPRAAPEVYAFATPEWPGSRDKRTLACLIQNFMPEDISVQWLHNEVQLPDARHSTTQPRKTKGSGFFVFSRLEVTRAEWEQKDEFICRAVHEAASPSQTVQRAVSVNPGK

EC50 [nM]	Max effect/effect 1 µM [%]	Binder
0.4	99	B1
11.9	99	B2
0.4	100	B3
6.1	100	B4
0.3	97	B5
8.1	100	B6
0.5	100	B7
5.3	100	B8
